Data reported in the supplement of paper PMC10598134.
± gives the standard deviation.

Test: collision cross section of modified peptide (TIMS, N2, iRT-aligned); higher = larger / more extended gas-phase ion
Procedure, shortened: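 Values are averages of 1–3 technical replicates of the most abundant feature for each charge state. Collision cross section was obtained from the Mason-Schamp equation after 1/K0 calibration with three reference ions and run-wise alignment to the median iRT peptide deviation. Synthetic peptide pools (iRT standard spiked 1:40) were separated on a 120-min nanoflow C18 gradient at 60 °C, analysed on a timsTOF Pro/HT (dda-PASEF, nitrogen, ~2.4 mbar) and identified with MaxQuant.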

[1] = charge state: 2, modification: Glutarylation
[2] = charge state: 3, modification: Glutarylation
[3] = charge state: 2, modification: GlyGly (K)
[4] = charge state: 3, modification: GlyGly (K)
[5] = charge state: 2, modification: Malonyl
[6] = charge state: 2, modification: Methyl (K)
[7] = charge state: 3, modification: Methyl (K)
[8] = charge state: 2, modification: Succinyl
[9] = charge state: 3, modification: Trimethyl (K)
[10] = charge state: 2, modification: hydroxyisobutyryl
[11] = charge state: 3, modification: hydroxyisobutyryl
[12] = charge state: 2, modification: Acetyl (K)
[13] = charge state: 2, modification: Biotin
[14] = charge state: 2, modification: Butyryl
[15] = charge state: 3, modification: Butyryl
[16] = charge state: 2, modification: Crotonyl
[17] = charge state: 2, modification: Dimethyl (K)
[18] = charge state: 3, modification: Dimethyl (K)
[19] = charge state: 2, modification: Formyl

SLEEEGAAHSGKR [_SLEEEGAAHSGK(Gluratylation)R_]
collision cross section [1]: 420.5 ± 2 Å² | collision cross section [2]: 475.56 ± 1.7 Å²

SLEEEGAAHSGKR [_SLEEEGAAHSGK(GlyGly (K))R_]
collision cross section [3]: 418.89 ± 1.9 Å² | collision cross section [4]: 473.02 ± 0.33 Å²

SLEEEGAAHSGKR [_SLEEEGAAHSGK(Malonyl)R_]
collision cross section [5]: 414.03 ± 1.2 Å²

SLEEEGAAHSGKR [_SLEEEGAAHSGK(Methyl (K))R_]
collision cross section [6]: 413.71 ± 2.6 Å² | collision cross section [7]: 459.06 ± 3.1 Å²

SLEEEGAAHSGKR [_SLEEEGAAHSGK(Propionyl)R_]
collision cross section (charge state: 2, modification: Propionyl): 416.58 ± 0.64 Å² | collision cross section (charge state: 3, modification: Propionyl): 480.52 ± 0.66 Å²

SLEEEGAAHSGKR [_SLEEEGAAHSGK(Succinyl)R_]
collision cross section [8]: 416.07 ± 1.8 Å² | collision cross section (charge state: 3, modification: Succinyl): 470.94 ± 2.7 Å²

SLEEEGAAHSGKR [_SLEEEGAAHSGK(Trimethyl (K))R_]
collision cross section [9]: 465.19 ± 1.5 Å²

SLEEEGAAHSGKR [_SLEEEGAAHSGK(hydroxyisobutyryl)R_]
collision cross section [10]: 421.1 ± 1.9 Å² | collision cross section [11]: 479.68 ± 2.1 Å²

SLFFGGKGAPLQR [_SLFFGGK(Acetyl (K))GAPLQR_]
collision cross section [12]: 401.47 ± 0.85 Å²

SLFFGGKGAPLQR [_SLFFGGK(Biotin)GAPLQR_]
collision cross section [13]: 419.13 Å²

SLFFGGKGAPLQR [_SLFFGGK(Butyryl)GAPLQR_]
collision cross section [14]: 406.8 ± 0.75 Å² | collision cross section [15]: 492.14 ± 2.1 Å²

SLFFGGKGAPLQR [_SLFFGGK(Crotonyl)GAPLQR_]
collision cross section [16]: 404.03 ± 0.35 Å²

SLFFGGKGAPLQR [_SLFFGGK(Dimethyl (K))GAPLQR_]
collision cross section [17]: 408.95 ± 0.54 Å² | collision cross section [18]: 451.66 ± 1.6 Å²

SLFFGGKGAPLQR [_SLFFGGK(Formyl)GAPLQR_]
collision cross section [19]: 399.67 ± 0.55 Å²

SLFFGGKGAPLQR [_SLFFGGK(Gluratylation)GAPLQR_]
collision cross section [1]: 407.53 ± 0.99 Å² | collision cross section [2]: 479.63 ± 1.2 Å²

SLFFGGKGAPLQR [_SLFFGGK(GlyGly (K))GAPLQR_]
collision cross section [3]: 414.92 ± 0.35 Å² | collision cross section [4]: 468.6 ± 1.1 Å²

SLFFGGKGAPLQR [_SLFFGGK(Malonyl)GAPLQR_]
collision cross section [5]: 399.96 ± 0.61 Å²

SLFFGGKGAPLQR [_SLFFGGK(Methyl (K))GAPLQR_]
collision cross section [6]: 405.87 ± 0.92 Å² | collision cross section [7]: 448.66 ± 4 Å²

SLFFGGKGAPLQR [_SLFFGGK(Succinyl)GAPLQR_]
collision cross section [8]: 401.28 ± 0.38 Å²

SLFFGGKGAPLQR [_SLFFGGK(Trimethyl (K))GAPLQR_]
collision cross section (charge state: 2, modification: Trimethyl (K)): 413.8 ± 0.016 Å² | collision cross section [9]: 456.34 ± 1.8 Å²

SLFFGGKGAPLQR [_SLFFGGK(hydroxyisobutyryl)GAPLQR_]
collision cross section [10]: 408.12 ± 0.55 Å² | collision cross section [11]: 482.11 Å²

SLGEPAAGEGSAKR [_SLGEPAAGEGSAK(Acetyl (K))R_]
collision cross section [12]: 382.38 ± 0.43 Å² | collision cross section (charge state: 3, modification: Acetyl (K)): 484.93 ± 0.63 Å²

SLGEPAAGEGSAKR [_SLGEPAAGEGSAK(Biotin)R_]
collision cross section [13]: 403.03 Å²

SLGEPAAGEGSAKR [_SLGEPAAGEGSAK(Butyryl)R_]
collision cross section [14]: 388.15 ± 2 Å² | collision cross section [15]: 487.74 ± 4.3 Å²

SLGEPAAGEGSAKR [_SLGEPAAGEGSAK(Crotonyl)R_]
collision cross section [16]: 387.18 ± 0.89 Å² | collision cross section (charge state: 3, modification: Crotonyl): 487.34 ± 1.3 Å²

SLGEPAAGEGSAKR [_SLGEPAAGEGSAK(Dimethyl (K))R_]
collision cross section [17]: 415.22 ± 2 Å² | collision cross section [18]: 473.88 ± 2.6 Å²

SLGEPAAGEGSAKR [_SLGEPAAGEGSAK(Formyl)R_]
collision cross section [19]: 375.91 ± 0.55 Å² | collision cross section (charge state: 3, modification: Formyl): 481.8 Å²

SLGEPAAGEGSAKR [_SLGEPAAGEGSAK(Gluratylation)R_]
collision cross section [1]: 384.54 ± 0.66 Å² | collision cross section [2]: 479.54 ± 1 Å²

SLGEPAAGEGSAKR [_SLGEPAAGEGSAK(GlyGly (K))R_]
collision cross section [3]: 411.44 ± 1.9 Å² | collision cross section [4]: 486.35 ± 2.8 Å²

SLGEPAAGEGSAKR [_SLGEPAAGEGSAK(Malonyl)R_]
collision cross section [5]: 366.04 ± 1.1 Å²

SLGEPAAGEGSAKR [_SLGEPAAGEGSAK(Methyl (K))R_]
collision cross section [6]: 408.5 ± 0.81 Å² | collision cross section [7]: 480.43 ± 2.6 Å²
